This assay concerns the target truncated human ACE2 ectodomain (residues 19–613) with C-terminal AVI-tag and 6xHis-tag, biotinylated (human) (UniProt Q9BYF1). Kind of assay: BLI. (Biolayer interferometry detects binding as a change in optical thickness at a sensor tip.)

“SARS-CoV-2 RBD variant S477N (from UniProt P0DTC2 319-541) (domain or fragment)”: the t1/2 was determined as 2.68 min.
